Assay results published in US20220289828A1.

Columns and labels:
[1] = target: Enterovirus D68 US/MO/14-18947 virus particle (B1 clade) (Enterovirus D68); experiment: cryo-EM structure
[2] = target: Enterovirus D68 US/MO/14-18947 virus particle (B1 clade) (Enterovirus D68); experiment: cryo-EM of Fab with B1 clade virus
[3] = target: B1 clade EV-D68 isolate (Enterovirus D68); experiment: cell-based or functional assay

| Binder | share of the masked surface area from the heavy chain [1] [%] | viral surface area masked by each Fab [1] [Å^2] | copies of Fab bound to the virus particle [2] [copies] | IC50 in a CCID50 neutralization assay [3] [ng/mL] |
| --- | --- | --- | --- | --- |
| Fab EV68-228 (Fab, V domains shown) VH: QVQLQESGPGLVKPSETLSLTCTVSGYLISNGYYWGWIRQSPGKGLEWIGSIYYTRDTYYNWSLKSRITISVDTSKKQFSLKLYSVTAADTAVYYCVRHEGSCNDGSCYGSFVDNWGQGTLVTVSS VL: DIQMTQSPSSVSASVGDRVTLTCRASQDISSWLAWYQQKPGKAPKLLIYAASSLQSGVPSRFSGSGSGTHFTLTISSLQPEDFATYFCQQADSFITFGGGTKVEIK | 84 | 1170 | 60 | – |
| mAb EV68-159 (antibody, V domains shown) VH: EVQLVESGGGLVKPGGSLRLSCAASGFTFSTYIMTWVRQAPGRGLEWVSSISTSSVYTFYADSLKGRFTISRDNAKNSVYLQMNSLRADDTAVYYCAREEGFRAYNLYWGQGTLVTVSS VL: QSVLTQPPSASGTPGQRVTISCSGSSSNIEYNYVYWYQKFPGTAPKLLIYKNNQRPSGVPDRFSGSKSGTSASLAISGLRSEDEGDYYCAAWDDILSGVVFGGGTKLTVL | – | – | – | 0.32 |
| Fab EV68-159 (Fab, V domains shown) VH: EVQLVESGGGLVKPGGSLRLSCAASGFTFSTYIMTWVRQAPGRGLEWVSSISTSSVYTFYADSLKGRFTISRDNAKNSVYLQMNSLRADDTAVYYCAREEGFRAYNLYWGQGTLVTVSS VL: QSVLTQPPSASGTPGQRVTISCSGSSSNIEYNYVYWYQKFPGTAPKLLIYKNNQRPSGVPDRFSGSKSGTSASLAISGLRSEDEGDYYCAAWDDILSGVVFGGGTKLTVL | 77 | 990 | 60 | – |
